From patent US20240132578A1
Changes are numbered by the printed parent chain. “And” between values parts separate entries of the source, which are not always exact repeats. Equal entries are not always repeated.

B1: PGT-131 (B cell culture well 5136_H1) (antibody, V domains shown)
VH: QVQLQESGPGLVKPSETLSLTCTVSGDSINTGHHYWGWVRQVPGKGPEWIAHIHYNTAVLHNPALKSRVTISIFTLKNLITLSLSNVTAADTAVYFCVRSGGDILYYIEWQKPHWFYPWGPGILVTVSS
VL: QSALTQPPSASGSLGQSLTISCSGTGSDIGSWNFVSWYQQFPGRAPNLIIFEVNRRRSGVPDRFSGSKSGNTASLTVSGLRSEDEAEYFCSSLSGRWDIVFGGGTKVTVL
B2: PGT-131 (antibody, V domains shown)
VH: B1 VH
VL: B1 VL
B3: PGT-125 (B cell culture well 5123_A6) (antibody, V domains shown)
VH: QSQLQESGPRLVEASETLSLTCNVSGESTGACTYFWGWVRQAPGKGLEWIGSLSHCQSFWGSGWTFHNPSLKSRLTISLDTPKNQVFLKLTSLTAADTATYYCARFDGEVLVYNHWPKPAWVDLWGRGIPVTVSS
VL: QSALTQPPSASGSPGQSITISCNGTATNFVSWYQQFPDKAPKLIIFGVDKRPPGVPDRFSGSRSGTTASLTVSRLQTDDEAVYYCGSLVGNWDVIFGGGTTLTVL
B4: PGT-126 (B cell culture well 5141_B17) (antibody, V domains shown)
VH: QPQLQESGPGLVEASETLSLTCTVSGDSTAACDYFWGWVRQPPGKGLEWIGGLSHCAGYYNTGWTYHNPSLKSRLTISLDTPKNQVFLKLNSVTAADTAIYYCARFDGEVLVYHDWPKPAWVDLWGRGTLVTVSS
VL: QSALTQPPSASGSPGQSISISCTGTSNRFVSWYQQHPGKAPKLVIYGVNKRPSGVPDRFSGSKSGNTASLTVSGLQTDDEAVYYCSSLVGNWDVIFGGGTKLTVL
B5: PGT-128 (B cell culture well 5114_A19) (antibody, V domains shown)
VH: QPQLQESGPTLVEASETLSLTCAVSGDSTAACNSFWGWVRQPPGKGLEWVGSLSHCASYWNRGWTYHNPSLKSRLTLALDTPKNLVFLKLNSVTAADTATYYCARFGGEVLRYTDWPKPAWVDLWGRGTLVTVSS
VL: B4 VL with S19T, R28N, P37A, G47D, S86G
B6: PGT-127 (B cell culture well 5145_B14) (antibody, V domains shown)
VH: QPQLQESGPGLVEASETLSLTCTVSGDSTGRCNYFWGWVRQPPGKGLEWIGSLSHCRSYYNTDWTYHNPSLKSRLTISLDTPKNQVFLRLTSVTAADTATYYCARFGGEVLVYRDWPKPAWVDLWGRGTLVVTVS
VL: B4 VL with S19T, R28N, H36Y, G47E, N66S, T77A, A81G
B7: PGT-135 (B cell culture wells 5343_B8 and 5344_E16) (antibody, V domains shown)
VH: QLQMQESGPGLVKPSETLSLSCTVSGDSIRGGEWGDKDYHWGWVRHSAGKGLEWIGSIHWRGTTHYKESLRRRVSMSIDTSRNWFSLRLASVTAADTAVYFCARHRHHDVFMLVPIAGWFDVWGPGVQVTVSS
VL: EIVMTQSPDTLSVSPGETVTLSCRASQNINKNLAWYQYKPGQSPRLVIFETYSKIAAFPARFVASGSGTEFTLTINNMQSEDVAVYYCQQYEEWPRTFGQGTKVDIK
B8: PGT-130 (B cell culture well 5147_N6) (antibody, V domains shown)
VH: QVQLQESGPGLVKPAETLSLTCSVSGESINTGHYYWGWVRQVPGKGLEWIGHIHYTTAVLHNPSLKSRLTIKIYTLRNQITLRLSNVTAADTAVYHCVRSGGDILYYYEWQKPHWFSPWGPGIHVTVSS
VL: QSALTQPPSASGSLGQSVTISCNGTSSDIGGWNFVSWYQQFPGRAPRLIIFEVNKRPSGVPGRFSGSKSGNSASLTVSGLQSDDEGQYFCSSLFGRWDVVFGGGTKLTVL
B9: PGT-137 (antibody, V domains shown)
VH: EVHLEESGPGLVRPSETLSLTCTASGGSIRGGEWGDSDYHWGWVRHSPEKGLEWIGSIHWRGTTHYNAPFRGRGRLSIDLSRNQFSLRLTSVTAEDTAVYYCVKHKYHDIVMVVPIAGWFDPWGQGLQVTVSS
VL: EIMMTQSPAILSVSPGDRATLSCRASQSVKNNLAWYQKRPGQAPRLLIFDTSSRASGIPARFSGGGSGTEFTLTVNSMQSEDFATYYCQQYEEWPRTFGQGTKVEIK
B10: PGT-136 (antibody, V domains shown)
VH: QLQLQESGPGLVKPSETLSLTCTVSGGSMRGTDWGENDFHYGWIRQSSAKGLEWIGSIHWRGRTTHYKTSFRSRATLSIDTSNNRFSLTFSFVTAADTAVYYCARHKYHDIFRVVPVAGWFDPWGQGLLVTVSS
VL: EIVMTQSPPTLSVSPGETATLSCRASQNVKNNLAWYQLKPGQAPRLLIFDASSRAGGIPDRFSGSGYGTDFTLTVNSVQSEDFGDYFCQQYEEWPRTFGQGTKVDIK

Key:
Experiment in all cases: cell-based or functional assay
[1] = biological target: HIV-1 Env of pseudovirus MGRM-C-26 (HIV-1)
[2] = biological target: HIV-1 Env of pseudovirus JRCSF (HIV-1) (UniProt P20871)
[3] = biological target: HIV-1 Env of pseudovirus 92TH021 (HIV-1)
[4] = biological target: HIV-1 Env of isolate APV_17 (subtype B) (HIV-1)
[5] = biological target: HIV-1 Env of isolate MGRM-G-004 (subtype G), on pseudovirus (HIV-1)
[6] = biological target: HIV-1 Env of isolate MGRM-G-006 (subtype G), on pseudovirus (HIV-1)
[7] = biological target: HIV-1 Env of isolate MGRM-G-025 (subtype G), on pseudovirus (HIV-1)
[8] = biological target: HIV-1 Env of isolate MGRM-G-028 (subtype G), on pseudovirus (HIV-1)
[9] = biological target: HIV-1 Env of isolate MGRM-G-001 (subtype G), on pseudovirus (HIV-1)
[10] = biological target: HIV-1 Env of isolate MGRM-G-013 (subtype G), on pseudovirus (HIV-1)
[11] = biological target: HIV-1 Env of isolate MGRM-G-015 (subtype G), on pseudovirus (HIV-1)
[12] = biological target: HIV-1 Env of isolate MGRM-G-009 (subtype G), on pseudovirus (HIV-1)
[13] = biological target: HIV-1 Env of isolate MGRM-G-019 (subtype G), on pseudovirus (HIV-1)
[14] = biological target: HIV-1 Env of isolate MGRM-G-017 (subtype G), on pseudovirus (HIV-1)
[15] = biological target: HIV-1 Env of isolate MGRM-G-024 (subtype G), on pseudovirus (HIV-1)
[16] = biological target: HIV-1 Env of isolate MGRM-G-027 (subtype G), on pseudovirus (HIV-1)
[17] = biological target: HIV-1 Env of isolate MGRM-G-014 (subtype G), on pseudovirus (HIV-1)
[18] = biological target: aMLV envelope, on pseudovirus (negative control)
[19] = biological target: HIV-1 Env of isolate APV 6 (subtype B) (HIV-1)
[20] = biological target: HIV-1 Env of isolate 92BR020 (subtype B) (HIV-1)
[21] = biological target: HIV-1 Env of isolate MGRM-G-011 (subtype G), on pseudovirus (HIV-1)
[22] = biological target: HIV-1 Env of isolate 6535.3 (subtype B) (HIV-1)
[23] = biological target: HIV-1 Env of isolate MGRM-G-016 (subtype G), on pseudovirus (HIV-1)
[24] = biological target: HIV-1 Env of isolate APV 13 (subtype B) (HIV-1)
[25] = biological target: HIV-1 Env of isolate 93TH305 (subtype B) (HIV-1)

Row | Binder | Primary Neutralization Index (B cell culture supernatant) [1] | Primary Neutralization Index (B cell culture supernatant) [2] | Primary Neutralization Index (B cell culture supernatant) [3] | IC50 (µg/mL), pseudovirus neutralization [4] [µg/mL] | IC50 (µg/mL), neutralization of pseudovirus [5] [µg/mL] | IC50 (µg/mL), neutralization of pseudovirus [6] [µg/mL] | IC50 (µg/mL), neutralization of pseudovirus [7] [µg/mL] | IC50 (µg/mL), neutralization of pseudovirus [8] [µg/mL] | IC50 (µg/mL), neutralization of pseudovirus [9] [µg/mL] | IC50 (µg/mL), neutralization of pseudovirus [10] [µg/mL] | IC50 (µg/mL), neutralization of pseudovirus [11] [µg/mL] | IC50 (µg/mL), neutralization of pseudovirus [12] [µg/mL] | IC50 (µg/mL), neutralization of pseudovirus [13] [µg/mL] | IC50 (µg/mL), neutralization of pseudovirus [14] [µg/mL] | IC50 (µg/mL), neutralization of pseudovirus [15] [µg/mL] | IC50 (µg/mL), neutralization of pseudovirus [16] [µg/mL] | IC50 (µg/mL), neutralization of pseudovirus [17] [µg/mL] | Polyclonal Transfectant Neutralization Index [1] | Polyclonal Transfectant Neutralization Index [2] | Polyclonal Transfectant Neutralization Index [3] | also measured
1 | B1 | 1.2 | 6.2 | 354 | – | – | – | – | – | – | – | – | – | – | – | – | – | – | – | – | – | –
2 | B2 | – | – | – | > 50 | > 50 | > 50 | 7.75 | 0.466 | 0.404 | > 50 | > 50 | > 50 | > 50 | > 50 | 10.7 | 2.9 | 4.31 | – | – | – | IC50 (µg/mL), neutralization of pseudovirus [18]: > 50 µg/mL; IC50 (µg/mL), pseudovirus neutralization [19]: > 50 µg/mL; IC50 (µg/mL), pseudovirus neutralization [20]: 6.16 µg/mL; IC50 (µg/mL), neutralization of pseudovirus [21]: > 50 µg/mL; IC50 (µg/mL), pseudovirus neutralization [22]: 0.056 µg/mL; IC50 (µg/mL), neutralization of pseudovirus [23]: > 50 µg/mL; IC50 (µg/mL), pseudovirus neutralization [24]: 0.189 µg/mL; IC50 (µg/mL), pseudovirus neutralization [25]: 0.016 µg/mL
3 | B3 | 512 | 1730 | 133 | – | – | – | – | – | – | – | – | – | – | – | – | – | – | 88.3 | 119 | 50.6 | –
4 | B4 | 654 | 1410 | 2.3 | – | – | – | – | – | – | – | – | – | – | – | – | – | – | 102 | 102 | 2.74 | –
5 | B5 | 17.1 | 77.5 | 6.6 | – | – | – | – | – | – | – | – | – | – | – | – | – | – | 32.2 | 136 | 10 | –
6 | B6 | 86.9 | 31.1 | 1 | – | – | – | – | – | – | – | – | – | – | – | – | – | – | 2.62 | 1.61 | 0.94 | –
7 | B7 | 6.5 and 3.6 | 1.8 and 1.5 | – | – | – | – | – | – | – | – | – | – | – | – | – | – | – | – | – | – | –
8 | B8 | 3 | 19.3 | 538 | – | – | – | – | – | – | – | – | – | – | – | – | – | – | 1.05 | 1.24 | 4.2 | –
9 | B9 | – | – | – | > 50 | > 50 | > 50 | > 50 | > 50 | 41.7 | > 50 | > 50 | > 50 | 0.126 | 34.9 | 0.051 | 0.228 | > 50 | – | – | – | IC50 (µg/mL), neutralization of pseudovirus [18]: > 50 µg/mL; IC50 (µg/mL), pseudovirus neutralization [19]: > 50 µg/mL; IC50 (µg/mL), pseudovirus neutralization [20]: 7.81 µg/mL; IC50 (µg/mL), neutralization of pseudovirus [21]: > 50 µg/mL; IC50 (µg/mL), pseudovirus neutralization [22]: > 50 µg/mL; IC50 (µg/mL), neutralization of pseudovirus [23]: > 50 µg/mL; IC50 (µg/mL), pseudovirus neutralization [24]: > 50 µg/mL; IC50 (µg/mL), pseudovirus neutralization [25]: > 50 µg/mL
10 | B10 | – | – | – | > 50 | > 50 | > 50 | > 50 | > 50 | 8.11 | > 50 | > 50 | > 50 | 44.3 | > 50 | 0.152 | 45.2 | > 50 | – | – | – | IC50 (µg/mL), neutralization of pseudovirus [18]: > 50 µg/mL; IC50 (µg/mL), pseudovirus neutralization [19]: > 50 µg/mL; IC50 (µg/mL), pseudovirus neutralization [20]: 8.61 µg/mL; IC50 (µg/mL), neutralization of pseudovirus [21]: > 50 µg/mL; IC50 (µg/mL), pseudovirus neutralization [22]: > 50 µg/mL; IC50 (µg/mL), neutralization of pseudovirus [23]: > 50 µg/mL; IC50 (µg/mL), pseudovirus neutralization [24]: > 50 µg/mL; IC50 (µg/mL), pseudovirus neutralization [25]: 20.2 µg/mL
